The record followed here is paper doi:10.1101/2025.06.13.659407, “Scavenger Receptor class F member 2 is an intracellular receptor for Hepatitis B virus” (bioRxiv, 2025).

The target of this test is biotinylated preS1 peptide 79–108 carrying 89D and 90K (hepatitis B virus (residues numbered …, biotin (position not stated for this peptide))). The test can be described thus: pull-down; 2 µM biotinylated preS1 peptide on Dynabeads MyOne Streptavidin T1, incubated with 2 µg purified protein 1 h at 37°C, washed with PBS 0.01% Tween 20, Western blot (anti-HA or anti-human IgG1); the paper calls it immunoprecipitation (IP-Western). The following applies: both partners purified. For orientation: In western blotting, separated proteins are transferred to a membrane and probed.

B1: sEGF4–6-hFc (soluble fusion protein comprising SCARF2's EGF4–6 domains, with an N-terminal HA tag and a C-terminal human IgG1 Fc tag) (Fc fusion)
chain: GSYPYDVPDYAGSSACYCSATSRCDPQTGACLCHAGWWGRSCNNQCACNSSPCEQQSGRCQCRERTFGARCDRYCQCFRGRCHPVDGTCACEPGYRGKYCR
As for B1, the “fold efficiency of precipitation against preS1 79–108 QT and QS peptides” value is ~2 fold.
